The results in this text go back to publication PMC2408616, “Modular Organization and Combinatorial Energetics of Proline–Tyrosine Nuclear Localization Signals” (PLoS Biology, 2008).

Where no end group is shown, it is not given here. MBP = not defined here

This assay has as its target T1, Kap104p (yeast (S. cerevisiae), UniProt P38217 1-918).
T1 construct: Kap104p, yeast homolog of Kapβ2; gene a gift from J. Aitchison, subcloned into pGEX-Tev; also called yeast Karyopherin β2 homolog; source: E. coli Rosetta(DE3)pLysS, purified (glutathione sepharose, TEV cleavage, anion exchange, gel filtration)
T1 sequence (looked up): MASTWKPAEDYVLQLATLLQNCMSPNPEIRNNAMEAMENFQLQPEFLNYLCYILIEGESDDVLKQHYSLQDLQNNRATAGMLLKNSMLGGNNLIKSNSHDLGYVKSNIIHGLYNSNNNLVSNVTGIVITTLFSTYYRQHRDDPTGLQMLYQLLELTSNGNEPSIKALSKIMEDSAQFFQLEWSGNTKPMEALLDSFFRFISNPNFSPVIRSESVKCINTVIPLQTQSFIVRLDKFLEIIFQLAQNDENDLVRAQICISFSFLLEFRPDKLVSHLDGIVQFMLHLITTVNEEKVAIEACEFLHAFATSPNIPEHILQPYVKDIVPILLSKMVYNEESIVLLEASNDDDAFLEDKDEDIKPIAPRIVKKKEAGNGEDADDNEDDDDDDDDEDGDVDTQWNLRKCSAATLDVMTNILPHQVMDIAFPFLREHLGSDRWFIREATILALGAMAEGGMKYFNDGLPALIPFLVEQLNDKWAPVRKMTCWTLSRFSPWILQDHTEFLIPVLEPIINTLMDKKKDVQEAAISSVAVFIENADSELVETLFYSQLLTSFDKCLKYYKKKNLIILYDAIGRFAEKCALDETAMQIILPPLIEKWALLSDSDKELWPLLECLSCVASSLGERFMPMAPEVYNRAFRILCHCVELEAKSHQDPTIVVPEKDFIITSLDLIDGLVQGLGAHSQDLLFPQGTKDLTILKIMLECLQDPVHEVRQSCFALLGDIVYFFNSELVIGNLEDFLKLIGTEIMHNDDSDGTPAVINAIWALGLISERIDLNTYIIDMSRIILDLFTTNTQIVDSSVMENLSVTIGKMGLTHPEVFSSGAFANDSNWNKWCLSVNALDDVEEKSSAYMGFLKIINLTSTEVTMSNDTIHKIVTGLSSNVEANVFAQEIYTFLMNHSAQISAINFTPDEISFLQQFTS
The experiment in a line: ITC; 90–350 μM MBP-NLS titrated into 9–35 μM Kap104p in the cell; 20 °C; 20 mM Tris pH 7.5, 100 mM NaCl, 2 mM β-mercaptoethanol, 10% glycerol; 35 injections of 8 μl; single-site model. Conditions: both partners purified.

B1: MBP–Nab2p NLS (domain or fragment, S. cerevisiae, UniProt P32505 201-251, looked up)
chain: DNSQRFTQRGGGAVGKNRRGGRGGNRGGRNNNSTRFNPLAKALGMAGESNM
notes: Nab2p NLS, residues 201-251 (methods; the results say 201-250); also called Nab2p NLS wild type; source: E. coli BL21(DE3), purified (amylose resin, cation exchange)
The Kd is a measure of binding affinity in units of concentration. High values mean lower affinity, low ones higher affinity. On to B1, for which the Kd was 37 nM.

B2: MBP–Nab2p NLS R235H (domain or fragment, S. cerevisiae, UniProt P32505 201-251, looked up)
chain: DNSQRFTQRGGGAVGKNRRGGRGGNRGGRNNNSTHFNPLAKALGMAGESNM
notes: Nab2p NLS, residues 201-251; also called R235 to histidine; source: E. coli BL21(DE3), purified (amylose resin, cation exchange)
With B2, the “KD,mutant/KD,wild type” value is 1.7.

B3: MBP–Nab2p NLS K216A (domain or fragment, S. cerevisiae, UniProt P32505 201-251, looked up)
chain: DNSQRFTQRGGGAVGANRRGGRGGNRGGRNNNSTRFNPLAKALGMAGESNM
notes: Nab2p NLS, residues 201-251; source: E. coli BL21(DE3), purified (amylose resin, cation exchange)
On to B3, for which the binding result is “binds”.

B4: MBP–Nab2p NLS L239K (domain or fragment, S. cerevisiae, UniProt P32505 201-251, looked up)
chain: DNSQRFTQRGGGAVGKNRRGGRGGNRGGRNNNSTRFNPKAKALGMAGESNM
notes: Nab2p NLS, residues 201-251; also called L239 to K; source: E. coli BL21(DE3), purified (amylose resin, cation exchange)
With B4, the binding result is “binds”.

B5: MBP–Nab2p NLS L239D (domain or fragment, S. cerevisiae, UniProt P32505 201-251, looked up)
chain: DNSQRFTQRGGGAVGKNRRGGRGGNRGGRNNNSTRFNPDAKALGMAGESNM
notes: as for B3
Consider B5, for which the “fold decrease in affinity against wild type” value was found to be 11 fold.

B6: MBP–Nab2p NLS L239W (domain or fragment, S. cerevisiae, UniProt P32505 201-251, looked up)
chain: DNSQRFTQRGGGAVGKNRRGGRGGNRGGRNNNSTRFNPWAKALGMAGESNM
notes: Nab2p NLS, residues 201-251; also called L239 to W; source: E. coli BL21(DE3), purified (amylose resin, cation exchange)
In the case of B6, the binding result is reported as “binds”.

B7: MBP–Nab2p NLS R235A (domain or fragment, S. cerevisiae, UniProt P32505 201-251, looked up)
chain: DNSQRFTQRGGGAVGKNRRGGRGGNRGGRNNNSTAFNPLAKALGMAGESNM
notes: as for B3
As to B7, the “KD,mutant/KD,wild type” value was 5.5.

B8: MBP–Nab2p NLS R222A (domain or fragment, S. cerevisiae, UniProt P32505 201-251, looked up)
chain: DNSQRFTQRGGGAVGKNRRGGAGGNRGGRNNNSTRFNPLAKALGMAGESNM
notes: as for B3
In the case of B8, the “KD,mutant/KD,wild type” value was around 1.

B9: MBP–Nab2p NLS F236A (domain or fragment, S. cerevisiae, UniProt P32505 201-251, looked up)
chain: DNSQRFTQRGGGAVGKNRRGGRGGNRGGRNNNSTRANPLAKALGMAGESNM
notes: as for B3
As to B9, the “KD,mutant/KD,wild type” value turned out to be 8.

B10: MBP–Nab2p NLS L239H (domain or fragment, S. cerevisiae, UniProt P32505 201-251, looked up)
chain: DNSQRFTQRGGGAVGKNRRGGRGGNRGGRNNNSTRFNPHAKALGMAGESNM
notes: Nab2p NLS, residues 201-251; also called L239 to H; source: E. coli BL21(DE3), purified (amylose resin, cation exchange)
Consider B10, for which the binding result was “binds”.

B11: MBP–Nab2p NLS L239N (domain or fragment, S. cerevisiae, UniProt P32505 201-251, looked up)
chain: DNSQRFTQRGGGAVGKNRRGGRGGNRGGRNNNSTRFNPNAKALGMAGESNM
notes: Nab2p NLS, residues 201-251; also called L239 to N; source: E. coli BL21(DE3), purified (amylose resin, cation exchange)
Consider B11, for which the binding result was “binds”.

B12: MBP–Nab2p NLS L239G (domain or fragment, S. cerevisiae, UniProt P32505 201-251, looked up)
chain: DNSQRFTQRGGGAVGKNRRGGRGGNRGGRNNNSTRFNPGAKALGMAGESNM
notes: as for B3
In the case of B12, the binding result is on record as “binds”.

B13: MBP–Nab2p NLS R218, R219, R222, R226, R229/AAAAA (domain or fragment, S. cerevisiae, UniProt P32505 201-251, looked up)
chain: DNSQRFTQRGGGAVGKNAAGGAGGNAGGANNNSTRFNPLAKALGMAGESNM
notes: Nab2p NLS, residues 201-251; also called pentamutant; source: E. coli BL21(DE3), purified (amylose resin, cation exchange)
Molecule B13 had a Kd of 2250 nM.

B14: MBP–Nab2p NLS L239Q (domain or fragment, S. cerevisiae, UniProt P32505 201-251, looked up)
chain: DNSQRFTQRGGGAVGKNRRGGRGGNRGGRNNNSTRFNPQAKALGMAGESNM
notes: Nab2p NLS, residues 201-251; also called L239 to Q; source: E. coli BL21(DE3), purified (amylose resin, cation exchange)
As for B14, the binding result is “binds”.

B15: MBP–Nab2p NLS R222A, 238PL239/AA (domain or fragment, S. cerevisiae, UniProt P32505 201-251, looked up)
chain: DNSQRFTQRGGGAVGKNRRGGAGGNRGGRNNNSTRFNAAAKALGMAGESNM
notes: as for B3
In turn, B15 registered an equilibrium dissociation constant (Kd) of 411 nM.

B16: MBP–Nab2p NLS 238PL239/PY (domain or fragment, S. cerevisiae, UniProt P32505 201-251, looked up)
chain: {MBP}-DNSQRFTQRGGGAVGKNRRGGRGGNRGGRNNNSTRFNPYAKALGMAGESNM
modifications: reading uncertain
notes: Nab2p NLS, residues 201-251; also called L239Y; source: E. coli BL21(DE3), purified (amylose resin, cation exchange)
The molecule B16 returned a Kd of 13 nM.

B17: MBP–Nab2p NLS L239F (domain or fragment, S. cerevisiae, UniProt P32505 201-251, looked up)
chain: DNSQRFTQRGGGAVGKNRRGGRGGNRGGRNNNSTRFNPFAKALGMAGESNM
notes: Nab2p NLS, residues 201-251; also called L239 to F; source: E. coli BL21(DE3), purified (amylose resin, cation exchange)
B17: the binding result was “binds”.
